Kd and kon data for 19 molecules are collected here from publication PMC4275594 (Nature Communications, 2014).

B1: IL-18Rβ K313A, C-terminal 6xHis tagged extracellular domains (residues 15-356), for SPR (domain or fragment, human, UniProt O95256-1 15-356, looked up)
chain: ERIKGFNISGCSTKKLLWTYSTRSEEEFVLFCDLPEPQKSHFCHRNRLSPKQVPEHLPFMGSNDLSDVQWYQQPSNGDPLEDIRKSYPHIIQDKCTLHFLTPGVNNSGSYICRPKMIKSPYDVACCVKMILEVKPQTNASCEYSASHKQDLLLGSTGSISCPSLSCQSDAQSPAVTWYKNGKLLSVERSNRIVVDEVYDYHQGTYVCDYTQSDTVSSWTVRAVVQVRTIVGDTKLKPDILDPVEDTLEVELGKPLTISCKARFGFERVFNPVIKWYIKDSDLEWEVSVPEAKSIKSTLADEIIERNIILEKVTQRDLRRKFVCFVQNSIGNTTQSVQLKEKR
notes: human IL-18 receptor β, extracellular domains, residues 15-356 of NM_003853; In the luciferase reporter assay the same mutation stood in full-length IL-18Rβ (pcDNA3.1+) expressed in HEK293 cells; source: silkworm (B. mori) larvae, BmNPV bacmid, haemolymph, purified as from Sf9; not shown: 6xHis, C-terminal, kept
B2: IL-18Rβ E210A, C-terminal 6xHis tagged extracellular domains (residues 15-356), for SPR (domain or fragment, human, UniProt O95256-1 15-356, looked up)
chain: ERIKGFNISGCSTKKLLWTYSTRSEEEFVLFCDLPEPQKSHFCHRNRLSPKQVPEHLPFMGSNDLSDVQWYQQPSNGDPLEDIRKSYPHIIQDKCTLHFLTPGVNNSGSYICRPKMIKSPYDVACCVKMILEVKPQTNASCEYSASHKQDLLLGSTGSISCPSLSCQSDAQSPAVTWYKNGKLLSVERSNRIVVDAVYDYHQGTYVCDYTQSDTVSSWTVRAVVQVRTIVGDTKLKPDILDPVEDTLEVELGKPLTISCKARFGFERVFNPVIKWYIKDSDLEWEVSVPEAKSIKSTLKDEIIERNIILEKVTQRDLRRKFVCFVQNSIGNTTQSVQLKEKR
notes: as for B1
B3: IL-18Rβ L167A, C-terminal 6xHis tagged extracellular domains (residues 15-356), for SPR (domain or fragment, human, UniProt O95256-1 15-356, looked up)
chain: ERIKGFNISGCSTKKLLWTYSTRSEEEFVLFCDLPEPQKSHFCHRNRLSPKQVPEHLPFMGSNDLSDVQWYQQPSNGDPLEDIRKSYPHIIQDKCTLHFLTPGVNNSGSYICRPKMIKSPYDVACCVKMILEVKPQTNASCEYSASHKQDLLAGSTGSISCPSLSCQSDAQSPAVTWYKNGKLLSVERSNRIVVDEVYDYHQGTYVCDYTQSDTVSSWTVRAVVQVRTIVGDTKLKPDILDPVEDTLEVELGKPLTISCKARFGFERVFNPVIKWYIKDSDLEWEVSVPEAKSIKSTLKDEIIERNIILEKVTQRDLRRKFVCFVQNSIGNTTQSVQLKEKR
notes: human IL-18 receptor β, extracellular domains, residues 15-356 of NM_003853; source: silkworm (B. mori) larvae, BmNPV bacmid, haemolymph, purified as from Sf9; not shown: 6xHis, C-terminal, kept
B4: human IL-18 receptor beta extracellular domain (residues 15-356), C-terminal 6xHis, E210A (receptor, UniProt O95256-1 15-356, looked up)
chain: ERIKGFNISGCSTKKLLWTYSTRSEEEFVLFCDLPEPQKSHFCHRNRLSPKQVPEHLPFMGSNDLSDVQWYQQPSNGDPLEDIRKSYPHIIQDKCTLHFLTPGVNNSGSYICRPKMIKSPYDVACCVKMILEVKPQTNASCEYSASHKQDLLLGSTGSISCPSLSCQSDAQSPAVTWYKNGKLLSVERSNRIVVDAVYDYHQGTYVCDYTQSDTVSSWTVRAVVQVRTIVGDTKLKPDILDPVEDTLEVELGKPLTISCKARFGFERVFNPVIKWYIKDSDLEWEVSVPEAKSIKSTLKDEIIERNIILEKVTQRDLRRKFVCFVQNSIGNTTQSVQLKEKR
notes: IL-18 receptor beta, human, extracellular domains, residues 15-356 of NM_003853; also called IL-18Rβ E210A; source: silkworm (B. mori) larvae, BmNPV bacmid, haemolymph, purified (ion exchange, Ni-NTA, gel filtration); not shown: 6xHis, C-terminal, kept
B5: human IL-18 receptor beta extracellular domain (residues 15-356), C-terminal 6xHis, Y214A (receptor, UniProt O95256-1 15-356, looked up)
chain: ERIKGFNISGCSTKKLLWTYSTRSEEEFVLFCDLPEPQKSHFCHRNRLSPKQVPEHLPFMGSNDLSDVQWYQQPSNGDPLEDIRKSYPHIIQDKCTLHFLTPGVNNSGSYICRPKMIKSPYDVACCVKMILEVKPQTNASCEYSASHKQDLLLGSTGSISCPSLSCQSDAQSPAVTWYKNGKLLSVERSNRIVVDEVYDAHQGTYVCDYTQSDTVSSWTVRAVVQVRTIVGDTKLKPDILDPVEDTLEVELGKPLTISCKARFGFERVFNPVIKWYIKDSDLEWEVSVPEAKSIKSTLKDEIIERNIILEKVTQRDLRRKFVCFVQNSIGNTTQSVQLKEKR
notes: IL-18 receptor beta, human, extracellular domains, residues 15-356 of NM_003853; also called IL-18Rβ Y214A; source: silkworm (B. mori) larvae, BmNPV bacmid, haemolymph, purified (ion exchange, Ni-NTA, gel filtration); not shown: 6xHis, C-terminal, kept
B6: human IL-18 receptor beta extracellular domain (residues 15-356), C-terminal 6xHis, K313A (receptor, UniProt O95256-1 15-356, looked up)
chain: ERIKGFNISGCSTKKLLWTYSTRSEEEFVLFCDLPEPQKSHFCHRNRLSPKQVPEHLPFMGSNDLSDVQWYQQPSNGDPLEDIRKSYPHIIQDKCTLHFLTPGVNNSGSYICRPKMIKSPYDVACCVKMILEVKPQTNASCEYSASHKQDLLLGSTGSISCPSLSCQSDAQSPAVTWYKNGKLLSVERSNRIVVDEVYDYHQGTYVCDYTQSDTVSSWTVRAVVQVRTIVGDTKLKPDILDPVEDTLEVELGKPLTISCKARFGFERVFNPVIKWYIKDSDLEWEVSVPEAKSIKSTLADEIIERNIILEKVTQRDLRRKFVCFVQNSIGNTTQSVQLKEKR
notes: IL-18 receptor beta, human, extracellular domains, residues 15-356 of NM_003853; also called IL-18Rβ K313A; source: silkworm (B. mori) larvae, BmNPV bacmid, haemolymph, purified (ion exchange, Ni-NTA, gel filtration); not shown: 6xHis, C-terminal, kept
B7: human IL-18 receptor beta extracellular domain (residues 15-356), C-terminal 6xHis, S169A-T170A (receptor, UniProt O95256-1 15-356, looked up)
chain: ERIKGFNISGCSTKKLLWTYSTRSEEEFVLFCDLPEPQKSHFCHRNRLSPKQVPEHLPFMGSNDLSDVQWYQQPSNGDPLEDIRKSYPHIIQDKCTLHFLTPGVNNSGSYICRPKMIKSPYDVACCVKMILEVKPQTNASCEYSASHKQDLLLGAAGSISCPSLSCQSDAQSPAVTWYKNGKLLSVERSNRIVVDEVYDYHQGTYVCDYTQSDTVSSWTVRAVVQVRTIVGDTKLKPDILDPVEDTLEVELGKPLTISCKARFGFERVFNPVIKWYIKDSDLEWEVSVPEAKSIKSTLKDEIIERNIILEKVTQRDLRRKFVCFVQNSIGNTTQSVQLKEKR
notes: IL-18 receptor beta, human, extracellular domains, residues 15-356 of NM_003853; also called IL-18RβS169A-T170A; source: silkworm (B. mori) larvae, BmNPV bacmid, haemolymph, purified (ion exchange, Ni-NTA, gel filtration); not shown: 6xHis, C-terminal, kept
B8: human IL-18 receptor beta extracellular domain (residues 15-356), C-terminal 6xHis, L167A (receptor, UniProt O95256-1 15-356, looked up)
chain: ERIKGFNISGCSTKKLLWTYSTRSEEEFVLFCDLPEPQKSHFCHRNRLSPKQVPEHLPFMGSNDLSDVQWYQQPSNGDPLEDIRKSYPHIIQDKCTLHFLTPGVNNSGSYICRPKMIKSPYDVACCVKMILEVKPQTNASCEYSASHKQDLLAGSTGSISCPSLSCQSDAQSPAVTWYKNGKLLSVERSNRIVVDEVYDYHQGTYVCDYTQSDTVSSWTVRAVVQVRTIVGDTKLKPDILDPVEDTLEVELGKPLTISCKARFGFERVFNPVIKWYIKDSDLEWEVSVPEAKSIKSTLKDEIIERNIILEKVTQRDLRRKFVCFVQNSIGNTTQSVQLKEKR
notes: IL-18 receptor beta, human, extracellular domains, residues 15-356 of NM_003853; also called IL-18Rβ L167A; source: silkworm (B. mori) larvae, BmNPV bacmid, haemolymph, purified (ion exchange, Ni-NTA, gel filtration); not shown: 6xHis, C-terminal, kept

The first experiment deals with human IL-18 receptor beta extracellular domain (residues 15-356), C-terminal 6xHis, wild type, from silkworm (human) (UniProt O95256). Nature of the experiment: SPR; BIAcore 3000, 25 °C; C-terminal 6xHis IL-18Rβ (wild type or mutant) immobilised at about 100 RU on a Ni-NTA sensor chip; un-tagged IL-18Rα saturated with 500 nM IL-18 (preformed binary complex) injected as analyte in HBS-P; triplicate.
Settings: not given
“preformed binary complex of IL-18 K79A and un-tagged IL-18Rα wild type extracellular domain (from UniProt Q13478 20-329)” displayed a Kd of 13 nM and a kon of 13000 M⁻¹ s⁻¹.
The matching figures for “preformed binary complex of IL-18 K84A and un-tagged IL-18Rα wild type extracellular domain (from UniProt Q13478 20-329)”: 18 nM and 10000 M⁻¹ s⁻¹.
Molecule “preformed binary complex of IL-18 R147A and un-tagged IL-18Rα wild type extracellular domain (from UniProt Q13478 20-329)” registered a kon of 69000 M⁻¹ s⁻¹.

The target in another experiment is human IL-18 receptor alpha extracellular domain (residues 20-329), C-terminal 6xHis, wild type, from silkworm (human) (UniProt Q13478). Nature of the experiment: SPR; BIAcore 3000, 25 °C; C-terminal 6xHis IL-18Rα (wild type or mutant) immobilised at about 200 RU on a Ni-NTA sensor chip; IL-18 (wild type or mutant) injected as analyte in HBS-P (10 mM HEPES-Na pH 7.4, 150 mM NaCl, 0.01% P-20), 30 µl/min, 180 s association, 360 s dissociation; triplicate.
Chain of human IL-18 receptor alpha extracellular domain (residues 20-329), C-terminal 6xHis, wild type, from silkworm (human) (Q13478 20-329): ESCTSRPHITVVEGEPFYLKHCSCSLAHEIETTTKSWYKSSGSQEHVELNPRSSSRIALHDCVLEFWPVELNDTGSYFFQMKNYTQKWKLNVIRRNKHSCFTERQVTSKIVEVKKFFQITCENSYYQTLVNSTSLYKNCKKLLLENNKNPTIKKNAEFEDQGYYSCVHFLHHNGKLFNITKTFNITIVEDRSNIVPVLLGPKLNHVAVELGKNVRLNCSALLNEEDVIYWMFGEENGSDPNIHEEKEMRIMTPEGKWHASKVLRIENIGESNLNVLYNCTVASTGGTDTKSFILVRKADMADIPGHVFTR
Settings: not given
The molecule “human interleukin-18, mature, D110A (ligand)” gave a Kd of 23 nM and a kon of 106000 M⁻¹ s⁻¹.
The corresponding values for “human interleukin-18, mature, G108A (ligand)” are 184 nM and 52000 M⁻¹ s⁻¹.
The matching figures for “human interleukin-18, mature, G145A (ligand)”: 57 nM and 59000 M⁻¹ s⁻¹.
The matching figures for “human interleukin-18, mature, H109A (ligand)”: 48 nM and 62000 M⁻¹ s⁻¹.
“human interleukin-18, mature, K79A (ligand)”: the equilibrium dissociation constant (Kd) came to 55 nM and the kon amounted to 76000 M⁻¹ s⁻¹.
The matching figures for “human interleukin-18, mature, K112A (ligand)”: 51 nM and 64000 M⁻¹ s⁻¹.
The corresponding values for “human interleukin-18, mature, M150A (ligand)” are 59 nM and 57000 M⁻¹ s⁻¹.
The corresponding values for “human interleukin-18, mature, R147A (ligand)” are 67 nM and 68000 M⁻¹ s⁻¹.

The target of a further experiment is T1, IL-18 WT/IL-18Rα WT complex (SPR analyte) (human, UniProt Q14116 37-193; Q13478 20-329).
T1 construct: human interleukin-18, mature IL-18 (residues 1-157); numbers count on: the mature protein; human IL-18 receptor α, extracellular domains, residues 20-329 of NM_003855, printed as un-tagged; also called IL-18/IL-18Rα binary complex; IL-18 WT(control); source: IL-18: E. coli BL21(DE3), purified; IL-18Rα: silkworm larvae haemolymph, purified; un-tagged IL-18Rα saturated with 500 nM IL-18
Nature of the experiment: SPR; BIAcore 3000, 25 °C, C-terminal 6xHis IL-18Rβ immobilised (~100 RU) on an NTA sensor chip, un-tagged IL-18Rα saturated with 500 nM IL-18 as analyte in HBS-P. The note with it: both partners purified.
B1: the Kd was determined as 109 nM.
Same read-out and setting: to B2 belongs 327 nM; to B3, 33 nM.

For a further experiment, the target named is T2, preformed binary complex of IL-18 wild type and un-tagged IL-18Rα wild type extracellular domain (human, UniProt Q14116 37-193; Q13478 20-329).
T2 construct: interleukin-18, human, mature IL-18 (residues 1-157); numbers count on: the mature protein; IL-18 receptor alpha, human, extracellular domains, residues 20-329 of NM_003855; also called IL-18 WT/IL-18Rα WT complex; IL-18/IL-18Rα; source: IL-18: E. coli BL21(DE3), purified; IL-18Rα: silkworm larvae haemolymph, purified; un-tagged IL-18Rα saturated with 500 nM IL-18
Nature of the experiment: SPR; BIAcore 3000, 25 °C; C-terminal 6xHis IL-18Rβ (wild type or mutant) immobilised at about 100 RU on a Ni-NTA sensor chip; un-tagged IL-18Rα saturated with 500 nM IL-18 (preformed binary complex) injected as analyte in HBS-P; triplicate. The settings on record: both partners purified.
The molecule B4 yielded a kon of 71000 M⁻¹ s⁻¹.
B5 had a kon of 97000 M⁻¹ s⁻¹.
The same measure, in the same setting: to B6 belongs 103000 M⁻¹ s⁻¹.
B7 had a Kd of 77 nM and a kon of 68000 M⁻¹ s⁻¹.
With B8, the kon stood at 76000 M⁻¹ s⁻¹.

Broadly, the Kd is the concentration at which binding is half-saturated. A high value points to a looser complex. In general, kon refers to the rate constant with which the complex forms. A high value points to faster complex formation.
